From patent US20170306033A1 (Amgen, published 2017)

What was measured:
human CGRP receptor = human CGRP receptor (human, UniProt Q16602 23-461; O60894 27-148); test: cell-based or functional assay
human PAC1 receptor = biological target: T1, human PAC1 receptor (human, UniProt P41586 21-468); test: cell-based or functional assay
T1 sequence: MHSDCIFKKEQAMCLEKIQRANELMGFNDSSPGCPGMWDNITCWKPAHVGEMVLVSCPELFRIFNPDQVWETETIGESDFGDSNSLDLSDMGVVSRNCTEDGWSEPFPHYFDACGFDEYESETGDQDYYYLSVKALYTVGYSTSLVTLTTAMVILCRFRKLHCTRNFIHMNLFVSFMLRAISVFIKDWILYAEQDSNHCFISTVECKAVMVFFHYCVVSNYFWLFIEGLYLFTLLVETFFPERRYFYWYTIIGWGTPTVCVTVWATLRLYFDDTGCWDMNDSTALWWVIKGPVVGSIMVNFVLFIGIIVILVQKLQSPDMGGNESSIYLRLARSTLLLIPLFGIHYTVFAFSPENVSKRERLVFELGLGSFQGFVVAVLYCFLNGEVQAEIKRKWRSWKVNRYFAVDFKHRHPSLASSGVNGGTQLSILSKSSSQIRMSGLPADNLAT

Sequence of human CGRP receptor (Q16602 23-461 limits assumed, chain 1 of 2): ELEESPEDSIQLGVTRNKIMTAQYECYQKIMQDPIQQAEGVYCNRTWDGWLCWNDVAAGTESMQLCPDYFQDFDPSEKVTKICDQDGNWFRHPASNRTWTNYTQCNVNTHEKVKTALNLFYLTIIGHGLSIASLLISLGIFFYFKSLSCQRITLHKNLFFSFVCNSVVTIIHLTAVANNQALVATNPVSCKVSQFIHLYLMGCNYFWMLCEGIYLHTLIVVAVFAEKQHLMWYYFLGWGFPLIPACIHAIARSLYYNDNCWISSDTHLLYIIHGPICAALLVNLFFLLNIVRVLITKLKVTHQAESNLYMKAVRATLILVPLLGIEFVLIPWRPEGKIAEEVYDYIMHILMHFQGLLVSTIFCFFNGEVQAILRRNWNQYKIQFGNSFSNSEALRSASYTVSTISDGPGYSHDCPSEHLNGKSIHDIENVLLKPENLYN
Sequence of human CGRP receptor (O60894 27-148 limits assumed, chain 2 of 2): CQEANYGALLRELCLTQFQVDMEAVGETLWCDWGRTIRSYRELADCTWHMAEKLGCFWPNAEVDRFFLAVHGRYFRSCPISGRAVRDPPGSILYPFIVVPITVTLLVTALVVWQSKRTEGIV

Row | Binder | % inhibition of human CGRPR (human CGRP receptor) [%] | % inhibition of human PAC1 (human PAC1 receptor) [%]
1 | iPS:327883 (bispecific antibody, human IgG1, kappa, lambda, N297G) light 1: DIQMTQSPSSLSASVGDRITITCRASQSISRYLNWYQQKPGKAPKLLIYAASSLQSGIPSRFSGSGSGTDFTLTINSLQPEDFATYFCQQSYSPPFTFGQGTKVDIKRTVAAPSVFIFPPSDEQLKSGTASVVCLLNNFYPREAKVQWKVDNALQSGNSQESVTEQDSKDSTYSLESTLTLSKADYEKHKVYACEVTHQGLSSPVTKSFNRGEC heavy 1: not shown light 2: QSVLTQPPSVSAAPGQKVTISCSGSSSNIGNNYVSWYQQLPGTAPKLLIYDNNKRPSGIPDRFSGSKSGTSATLGITGLQTGDEADYYCGTWDSRLSAVVFGGGTKLTVLGQPKANPTVTLFPPSSEELQANKATLVCLISDFYPGAVTVAWKADGSPVKAGVETTKPSKQSNNKYAAKSYLSLTPEQWKSHRSYSCQVTHEGSTVEKTVAPTECS heavy 2: QVQLVESGGGVVQPGRSLRLSCAASGFTFSSFGMHWVRQAPGKGLEWVAVISFDGSIKYSVDSVKGRFTISRDNSKNTLFLQMNSLRAEDTAVYYCARDRLNYYDSSGYYHYKYYGMAVWGQGTTVTVSSASTKGPSVFPLAPSSKSTSGGTAALGCLVKDYFPEPVTVSWNSGALTSGVHTFPAVLQSSGLYSLESVVTVPSSSLGTQTYICNVNHKPSNTKVDKKVEPKSCDKTHTCPPCPAPELLGGPSVFLFPPKPKDTLMISRTPEVTCVVVDVSHEDPEVKFNWYVDGVEVHNAKTKPCEEQYGSTYRCVSVLTVLHQDWLNGKEYKCKVSNKALPAPIEKTISKAKGQPREPQVYTLPPSRKEMTKNQVSLTCLVKGFYPSDIAVEWESNGQPENNYKTTPPVLKSDGSFFLYSKLTVDKSRWQQGNVFSCSVMHEALHNHYTQKSLSLSPGK | 77 | 27
2 | iPS:327895 (bispecific antibody, human IgG1, kappa, lambda, N297G) light 1: not shown heavy 1: not shown light 2: QSVLTQPPSVSAAPGQKVTISCSGSSSNIGNNYVSWYQQLPGTAPKLLIYDNNKRPSGIPDRFSGSKSGTSATLGITGLQTGDEADYYCGTWDSRLSAVVFGKGTKLTVLGQPKANPTVTLFPPSSEELQANKATLVCLISDFYPGAVTVAWKADGSPVKAGVETTKPSKQSNNKYAAKSYLSLTPEQWKSHRSYSCQVTHEGSTVEKTVAPTECS heavy 2: QVQLVESGGGVVQPGRSLRLSCAASGFTFSSFGMHWVRQAPGKELEWVAVISFDGSIKYSVDSVKGRFTISRDNSKNTLFLQMNSLRAEDTAVYYCARDRLNYYESSGYYHYKYYGMAVWGQGTTVTVSSASTKGPSVFPLAPSSKSTSGGTAALGCLVKDYFPEPVTVSWNSGALTSGVHTFPAVLQSSGLYSLESVVTVPSSSLGTQTYICNVNHKPSNTKVDKKVEPKSCDKTHTCPPCPAPELLGGPSVFLFPPKPKDTLMISRTPEVTCVVVDVSHEDPEVKFNWYVDGVEVHNAKTKPCEEQYGSTYRCVSVLTVLHQDWLNGKEYKCKVSNKALPAPIEKTISKAKGQPREPQVYTLPPSRKEMTKNQVSLTCLVKGFYPSDIAVEWESNGQPENNYKTTPPVLKSDGSFFLYSKLTVDKSRWQQGNVFSCSVMHEALHNHYTQKSLSLSPGK | 80 | 15
3 | iPS:327884 (bispecific antibody, human IgG1, kappa, lambda, N297G) light 1: not shown heavy 1: not shown light 2: QSVLTQPPSVSAAPGQKVTISCSGSSSNIGNNYVSWYQQLPGTAPKLLIYDNNKRPSGIPDRFSGSKSGTSATLGITGLQTGDEADYYCGTWDSRLSAVVFGGGTKLTVLGQPKANPTVTLFPPSSEELQANKATLVCLISDFYPGAVTVAWKADGSPVKAGVETTKPSKQSNNKYAAKSYLSLTPEQWKSHRSYSCQVTHEGSTVEKTVAPTECS heavy 2: QVQLVESGGGVVQPGRSLRLSCAASGFTFSSFGMHWVRQAPGKGLEWVAVISFDGSIKYSVDSVKGRFTISRDNSKNTLFLQMNSLRAEDTAVYYCARDRLNYYDSSGYYHYKYYGMAVWGQGTTVTVSSASTKGPSVFPLAPSSKSTSGGTAALGCLVKDYFPEPVTVSWNSGALTSGVHTFPAVLQSSGLYSLESVVTVPSSSLGTQTYICNVNHKPSNTKVDKKVEPKSCDKTHTCPPCPAPELLGGPSVFLFPPKPKDTLMISRTPEVTCVVVDVSHEDPEVKFNWYVDGVEVHNAKTKPCEEQYGSTYRCVSVLTVLHQDWLNGKEYKCKVSNKALPAPIEKTISKAKGQPREPQVYTLPPSRKEMTKNQVSLTCLVKGFYPSDIAVEWESNGQPENNYKTTPPVLKSDGSFFLYSKLTVDKSRWQQGNVFSCSVMHEALHNHYTQKSLSLSPGK | 78 | 8
4 | iPS:327893 (bispecific antibody, human IgG1, kappa, lambda, N297G) light 1: DIQMTQSPSSLSASVGDRITITCRASQSISRYLNWYQQKPGKAPKLLIYAASSLQSGIPSRFSGSGSGTDFTLTINSLQPEDFATYFCQQSYSPPFTFGQGTKVDIKRTVAAPSVFIFPPSDEQLKSGTASVVCLLNNFYPREAKVQWKVDNALQSGNSQESVTEQDSKDSTYSLESTLTLSKADYEKHKVYACEVTHQGLSSPVTKSFNRGEC heavy 1: not shown light 2: QSVLTQPPSVSAAPGQKVTISCSGSSSNIGNNYVSWYQQLPGTAPKLLIYDNNKRPSGIPDRFSGSKSGTSATLGITGLQTGDEADYYCGTWDSRLSAVVFGGGTKLTVLGQPKANPTVTLFPPSSEELQANKATLVCLISDFYPGAVTVAWKADGSPVKAGVETTKPSKQSNNKYAAKSYLSLTPEQWKSHRSYSCQVTHEGSTVEKTVAPTECS heavy 2: QVQLVESGGGVVQPGRSLRLSCAASGFTFSSFGMHWVRQAPGKGLEWVAVISFDGSIKYSVDSVKGRFTISRDNSKNTLFLQMNSLRAEDTAVYYCARDRLNYYESSGYYHYKYYGMAVWGQGTTVTVSSASTKGPSVFPLAPSSKSTSGGTAALGCLVKDYFPEPVTVSWNSGALTSGVHTFPAVLQSSGLYSLESVVTVPSSSLGTQTYICNVNHKPSNTKVDKKVEPKSCDKTHTCPPCPAPELLGGPSVFLFPPKPKDTLMISRTPEVTCVVVDVSHEDPEVKFNWYVDGVEVHNAKTKPCEEQYGSTYRCVSVLTVLHQDWLNGKEYKCKVSNKALPAPIEKTISKAKGQPREPQVYTLPPSRKEMTKNQVSLTCLVKGFYPSDIAVEWESNGQPENNYKTTPPVLKSDGSFFLYSKLTVDKSRWQQGNVFSCSVMHEALHNHYTQKSLSLSPGK | 74 | 56
5 | iPS:327885 (bispecific antibody, human IgG1, kappa, lambda, N297G) light 1: not shown heavy 1: not shown light 2: QSVLTQPPSVSAAPGQKVTISCSGSSSNIGNNYVSWYQQLPGTAPKLLIYDNNKRPSGIPDRFSGSKSGTSATLGITGLQTGDEADYYCGTWDSRLSAVVFGKGTKLTVLGQPKANPTVTLFPPSSEELQANKATLVCLISDFYPGAVTVAWKADGSPVKAGVETTKPSKQSNNKYAAKSYLSLTPEQWKSHRSYSCQVTHEGSTVEKTVAPTECS heavy 2: QVQLVESGGGVVQPGRSLRLSCAASGFTFSSFGMHWVRQAPGKELEWVAVISFDGSIKYSVDSVKGRFTISRDNSKNTLFLQMNSLRAEDTAVYYCARDRLNYYDSSGYYHYKYYGMAVWGQGTTVTVSSASTKGPSVFPLAPSSKSTSGGTAALGCLVKDYFPEPVTVSWNSGALTSGVHTFPAVLQSSGLYSLESVVTVPSSSLGTQTYICNVNHKPSNTKVDKKVEPKSCDKTHTCPPCPAPELLGGPSVFLFPPKPKDTLMISRTPEVTCVVVDVSHEDPEVKFNWYVDGVEVHNAKTKPCEEQYGSTYRCVSVLTVLHQDWLNGKEYKCKVSNKALPAPIEKTISKAKGQPREPQVYTLPPSRKEMTKNQVSLTCLVKGFYPSDIAVEWESNGQPENNYKTTPPVLKSDGSFFLYSKLTVDKSRWQQGNVFSCSVMHEALHNHYTQKSLSLSPGK | 73 | 7
6 | iPS:327886 (bispecific antibody, human IgG1, kappa, lambda, N297G) light 1: DIQMTQSPSSLSASVGDRITITCRASQSISRYLNWYQQKPGKAPKLLIYAASSLQSGIPSRFSGSGSGTDFTLTINSLQPEDFATYFCQQSYSPPFTFGQGTKVDIKRTVAAPSVFIFPPSDEQLKSGTASVVCLLNNFYPREAKVQWKVDNALQSGNSQESVTEQDSKDSTYSLESTLTLSKADYEKHKVYACEVTHQGLSSPVTKSFNRGEC heavy 1: not shown light 2: QSVLTQPPSVSAAPGQKVTISCSGSSSNIGNNYVSWYQQLPGTAPKLLIYDNNKRPSGIPDRFSGSKSGTSATLGITGLQTGDEADYYCGTWDSRLSAVVFGGGTKLTVLGQPKANPTVTLFPPSSEELQANKATLVCLISDFYPGAVTVAWKADGSPVKAGVETTKPSKQSNNKYAAKSYLSLTPEQWKSHRSYSCQVTHEGSTVEKTVAPTECS heavy 2: QVQLVESGGGVVQPGRSLRLSCAASGFTFSSFGMHWVRQAPGKGLEWVAVISFDGSIKYSVDSVKGRFTISRDNSKNTLFLQMNSLRAEDTAVYYCARDRLNYYDSSGYYHYKYYGMAVWGQGTTVTVSSASTKGPSVFPLAPSSKSTSGGTAALGCLVKDYFPEPVTVSWNSGALTSGVHTFPAVLQSSGLYSLESVVTVPSSSLGTQTYICNVNHKPSNTKVDKKVEPKSCDKTHTCPPCPAPELLGGPSVFLFPPKPKDTLMISRTPEVTCVVVDVSHEDPEVKFNWYVDGVEVHNAKTKPCEEQYGSTYRCVSVLTVLHQDWLNGKEYKCKVSNKALPAPIEKTISKAKGQPREPQVYTLPPSRKKMTKNQVSLTCLVKGFYPSDIAVEWESNGQPENNYKTTPPVLKSDGSFFLYSKLTVDKSRWQQGNVFSCSVMHEALHNHYTQKSLSLSPGK | 72 | 65
7 | iPS:327894 (bispecific antibody, human IgG1, kappa, lambda, N297G) light 1: not shown heavy 1: not shown light 2: QSVLTQPPSVSAAPGQKVTISCSGSSSNIGNNYVSWYQQLPGTAPKLLIYDNNKRPSGIPDRFSGSKSGTSATLGITGLQTGDEADYYCGTWDSRLSAVVFGGGTKLTVLGQPKANPTVTLFPPSSEELQANKATLVCLISDFYPGAVTVAWKADGSPVKAGVETTKPSKQSNNKYAAKSYLSLTPEQWKSHRSYSCQVTHEGSTVEKTVAPTECS heavy 2: QVQLVESGGGVVQPGRSLRLSCAASGFTFSSFGMHWVRQAPGKGLEWVAVISFDGSIKYSVDSVKGRFTISRDNSKNTLFLQMNSLRAEDTAVYYCARDRLNYYESSGYYHYKYYGMAVWGQGTTVTVSSASTKGPSVFPLAPSSKSTSGGTAALGCLVKDYFPEPVTVSWNSGALTSGVHTFPAVLQSSGLYSLESVVTVPSSSLGTQTYICNVNHKPSNTKVDKKVEPKSCDKTHTCPPCPAPELLGGPSVFLFPPKPKDTLMISRTPEVTCVVVDVSHEDPEVKFNWYVDGVEVHNAKTKPCEEQYGSTYRCVSVLTVLHQDWLNGKEYKCKVSNKALPAPIEKTISKAKGQPREPQVYTLPPSRKEMTKNQVSLTCLVKGFYPSDIAVEWESNGQPENNYKTTPPVLKSDGSFFLYSKLTVDKSRWQQGNVFSCSVMHEALHNHYTQKSLSLSPGK | 80 | 12
